We go through 23 substances from patent publication US7183387.

Assay [1] addresses human C1q (Quidel) (human) (UniProt P02745). Description: C1q ELISA. A general note: ELISA stands for enzyme-linked immunosorbent assay.
Assay [2] shares this target. Description: cell-based or functional assay.
The target in assay [3] is CD20 antigen on WIL2-S cells (UniProt P11836). Description: flow cytometry, WIL2-S cells.
For assay [4], the target named is human C1q (Quidel) (human) (UniProt P02745). Description: C1q ELISA. The source holds these as a separate data set.
Assay [5] has the same target. Put plainly: C1q ELISA. The source holds these as a separate data set.
The target of assay [6] is human FcγRIIA-R131 α subunit extracellular domain-6His-GST fusion (human) (UniProt P12318). Put plainly: ELISA, IgG:IgE hexamers on receptor-GST.
Assay [7] has as its target human FcγRIIB α subunit extracellular domain-6His-GST fusion (human) (UniProt P31994). Description: ELISA, IgG:IgE hexamers on receptor-GST.
The target in assay [8] is human FcγRIIIA-F158 α subunit extracellular domain-6His-GST fusion (human) (UniProt P08637). Description: ELISA, IgG:IgE hexamers on receptor-GST.
For assay [9], the target named is human FcγRIA α subunit extracellular domain-His6-GST fusion (human) (UniProt P12314). Put plainly: FcγRI ELISA and THP-1 cells, averaged.
Assay [10] has as its target human FcγRIIA-Arg131 α subunit extracellular domain-His6-GST fusion (human) (UniProt P12318). Put plainly: hexamer ELISA.
The target in assay [11] is human neonatal Fc receptor (FcRn), biotinylated (human) (UniProt P55899). Put plainly: FcRn ELISA, pH 6.0.
Assay [12] deals with human FcγRIIB α subunit extracellular domain-His6-GST fusion (human) (UniProt P31994). Put plainly: immune complex ELISA, E27 background.
Assay [13] concerns the target human FcγRIIA-R131 α subunit extracellular domain-His6-GST fusion (human) (UniProt P12318). Put plainly: ELISA, IgG:IgE hexamer on coated FcγRIIA-R131-GST; value carried over from Table 6, 7 or 8.
The target is the same in assay [14]. Description: ELISA, IgG complex, receptor coated.
Assay [15] has as its target human FcγRIIIA-Phe158 on cells (CHO cells stably transfected with α- and γ-chains; NK cells of Phe158/Phe158 donors) (human) (UniProt P08637). Put plainly: cell-based or functional assay.

Where two headings read alike, the source gives them in different places. Bounds are passed on as bounds.

Chain of human C1q (Quidel) (human) (P02745 23-245, chain 1 of 3): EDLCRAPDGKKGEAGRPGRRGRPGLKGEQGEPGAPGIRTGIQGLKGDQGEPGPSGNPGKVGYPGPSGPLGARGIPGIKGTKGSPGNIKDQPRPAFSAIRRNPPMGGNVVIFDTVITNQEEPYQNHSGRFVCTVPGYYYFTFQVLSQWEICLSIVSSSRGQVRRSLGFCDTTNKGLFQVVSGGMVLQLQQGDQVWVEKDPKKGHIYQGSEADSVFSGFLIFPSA
Chain of human C1q (Quidel) (human) (P02746 28-253, chain 2 of 3, further chain): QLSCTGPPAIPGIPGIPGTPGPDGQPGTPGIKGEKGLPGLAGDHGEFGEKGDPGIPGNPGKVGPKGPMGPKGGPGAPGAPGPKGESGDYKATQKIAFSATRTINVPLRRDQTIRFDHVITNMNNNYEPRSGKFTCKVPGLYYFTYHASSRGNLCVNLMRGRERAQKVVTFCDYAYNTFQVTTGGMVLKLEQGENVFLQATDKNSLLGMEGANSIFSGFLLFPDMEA
Chain of human C1q (Quidel) (human) (P02747 29-245, chain 3 of 3, further chain): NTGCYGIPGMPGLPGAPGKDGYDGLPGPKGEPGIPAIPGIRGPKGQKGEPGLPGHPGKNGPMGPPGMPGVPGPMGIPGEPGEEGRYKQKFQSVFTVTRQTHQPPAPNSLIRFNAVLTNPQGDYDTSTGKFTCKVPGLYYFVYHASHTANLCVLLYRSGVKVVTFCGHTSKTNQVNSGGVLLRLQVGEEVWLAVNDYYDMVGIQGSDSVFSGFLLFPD
Chain of CD20 antigen on WIL2-S cells (P11836 whole entry): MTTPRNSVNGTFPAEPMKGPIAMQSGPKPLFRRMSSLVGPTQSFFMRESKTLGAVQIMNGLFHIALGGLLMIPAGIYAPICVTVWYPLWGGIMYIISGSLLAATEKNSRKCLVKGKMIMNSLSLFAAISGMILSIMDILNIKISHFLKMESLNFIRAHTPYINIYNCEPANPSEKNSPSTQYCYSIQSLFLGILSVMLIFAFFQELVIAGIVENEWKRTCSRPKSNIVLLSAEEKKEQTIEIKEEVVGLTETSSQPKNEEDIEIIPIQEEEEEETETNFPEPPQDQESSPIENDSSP
Chain of human FcγRIIA-R131 α subunit extracellular domain-6His-GST fusion (human) (P12318 other isoform, or with tags, fused parts or gaps, form in doubt): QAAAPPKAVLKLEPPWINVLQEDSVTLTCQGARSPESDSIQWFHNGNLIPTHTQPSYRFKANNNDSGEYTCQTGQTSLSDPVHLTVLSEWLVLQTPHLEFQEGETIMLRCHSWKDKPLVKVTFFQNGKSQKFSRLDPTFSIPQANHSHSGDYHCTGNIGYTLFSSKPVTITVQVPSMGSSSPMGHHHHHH
Chain of human FcγRIIA-R131 α subunit extracellular domain-His6-GST fusion (human) (P12318 other isoform, or with tags, fused parts or gaps, form in doubt): as above
Chain of human FcγRIIB α subunit extracellular domain-6His-GST fusion (human) (P31994 other isoform, or with tags, fused parts or gaps, form in doubt): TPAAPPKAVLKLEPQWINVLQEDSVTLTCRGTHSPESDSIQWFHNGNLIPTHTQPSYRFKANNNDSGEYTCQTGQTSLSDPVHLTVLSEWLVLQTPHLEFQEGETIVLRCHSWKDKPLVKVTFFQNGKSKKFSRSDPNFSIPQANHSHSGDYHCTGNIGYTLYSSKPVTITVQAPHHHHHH
Chain of human neonatal Fc receptor (FcRn), biotinylated (human) (P55899 24-297 limits assumed, chain 1 of 2): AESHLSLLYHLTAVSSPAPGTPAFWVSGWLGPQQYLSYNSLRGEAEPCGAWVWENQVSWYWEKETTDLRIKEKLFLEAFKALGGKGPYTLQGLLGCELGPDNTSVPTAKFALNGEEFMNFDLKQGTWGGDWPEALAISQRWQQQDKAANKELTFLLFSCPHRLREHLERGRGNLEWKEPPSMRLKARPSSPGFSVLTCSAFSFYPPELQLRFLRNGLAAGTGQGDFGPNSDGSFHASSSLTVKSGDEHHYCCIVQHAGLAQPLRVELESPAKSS
Chain of human neonatal Fc receptor (FcRn), biotinylated (human) (P61769 21-119 limits assumed, chain 2 of 2, further chain): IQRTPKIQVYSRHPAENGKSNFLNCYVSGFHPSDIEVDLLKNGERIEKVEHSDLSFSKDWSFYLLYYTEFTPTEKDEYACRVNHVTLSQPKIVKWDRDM
Chain of human FcγRIIIA-Phe158 on cells (CHO cells stably transfected with α- and γ-chains; NK cells of Phe158/Phe158 donors) (human) (P08637 17-254, chain 1 of 2): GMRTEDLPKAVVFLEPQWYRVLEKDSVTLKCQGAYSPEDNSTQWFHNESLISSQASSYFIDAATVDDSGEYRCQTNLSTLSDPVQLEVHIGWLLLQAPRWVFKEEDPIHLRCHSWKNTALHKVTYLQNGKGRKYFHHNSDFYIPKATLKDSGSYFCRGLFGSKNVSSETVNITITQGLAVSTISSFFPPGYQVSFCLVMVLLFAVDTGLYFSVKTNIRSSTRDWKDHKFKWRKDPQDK
Chain of human FcγRIIIA-Phe158 on cells (CHO cells stably transfected with α- and γ-chains; NK cells of Phe158/Phe158 donors) (human) (P30273 19-86, chain 2 of 2, further chain): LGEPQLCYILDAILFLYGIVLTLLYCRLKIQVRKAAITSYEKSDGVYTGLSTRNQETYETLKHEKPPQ
Chain of human FcγRIIA-Arg131 α subunit extracellular domain-His6-GST fusion (human) (P12318 other isoform, or with tags, fused parts or gaps): as the sequence (P12318 other isoform, or with tags, fused parts or gaps, form in doubt) above
Chain of human FcγRIIB α subunit extracellular domain-His6-GST fusion (human) (P31994 other isoform, or with tags, fused parts or gaps): as the sequence (P31994 other isoform, or with tags, fused parts or gaps, form in doubt) above
Chain of human FcγRIA α subunit extracellular domain-His6-GST fusion (human) (P12314 other isoform, or with tags, fused parts or gaps): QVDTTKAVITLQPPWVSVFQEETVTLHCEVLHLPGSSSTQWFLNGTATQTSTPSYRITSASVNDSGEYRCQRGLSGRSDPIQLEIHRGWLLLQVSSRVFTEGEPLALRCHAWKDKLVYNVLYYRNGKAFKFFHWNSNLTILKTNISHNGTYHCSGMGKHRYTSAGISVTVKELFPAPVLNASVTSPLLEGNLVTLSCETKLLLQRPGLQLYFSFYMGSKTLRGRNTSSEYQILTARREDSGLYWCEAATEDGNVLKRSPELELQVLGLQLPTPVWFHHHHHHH

In assay [1], “C2B8 (human IgG1 constant region) A327 changed to glycine (antibody)” came in with an increase in binding against wild type of 50%.

In assay [1], C2B8 E318A (antibody) had a decrease in binding against wild type of 30%. This substance also yielded a CDC (% of wild type) in assay [2] of 108. The substance further displayed a percentage of the wild type in assay [3] of 89%.

In assay [1], C2B8 E333A (antibody) displayed an increase in binding against wild type of 30%.

For C2B8 E333S (antibody), the fold increase in binding against wild type in [1] was more than 2 fold; in [4], 2 fold.

On to C2B8 K320A (antibody), for which the CDC (% of wild type) in assay [2] was 108. This substance registered a percentage of the wild type in [3] of 102%.

In assay [1], C2B8 K326A (antibody) yielded an increase in binding against wild type of 30%.

Regarding C2B8 K326A-E333A (antibody), the fold better binding than wild type in assay [1] is more than 3 fold. This substance had a CDC in [2] of 2 fold.

With C2B8 K326D (antibody), the fold increase in binding against wild type in [1] was more than 2 fold.

C2B8 K326E (antibody) had a fold increase in binding against wild type in assay [1] of more than 2 fold.

In the case of C2B8 K326M (antibody), the fold increase in binding against wild type in assay [1] was more than 2 fold.

In turn, C2B8 K326M-E333S (antibody) came in with a fold better binding than wild type in [1] of more than 3 fold. Also, in [2], the CDC was determined as 2 fold.

Consider C2B8 K326W (antibody), for which the values for the fold increase in binding against wild type in [1] and in [5] were 5 fold and more than 2 fold, respectively.

In turn, C2B8 P329A (antibody) showed a percentage of the wild type in assay [3] of 112%.

Substance C2B8 P331A (antibody) displayed a fold lower binding than wild type in assay [1] of 60 fold. Moreover, the percentage of the wild type in assay [3] came to 103%.

With “E27 IgG1 variant K320(339)R (IG2 172) (antibody)”, the ratio to native IgG1 in assay [6] was 0.71; in [7] it was 0.66; in assay [8], 0.68.

Regarding “E27 IgG1 variant K320(339)R (IG2 235) (antibody)”, the results for the ratio to native IgG1 in assay [6], in [7] and in assay [8] were 1.24, 0.95 and 0.86, respectively.

With E27 IgG1 variant S267(280)T (antibody), the ratio to native IgG1 in [8] was found to be 0.05.

Take anti-IgE E27 IgG1 Asn297Ala (antibody): in [9], the ratio to native IgG1 came to 0.15.

For “anti-IgE E27 IgG1 Glu233Pro/Leu234Val/Leu235Ala/Gly236deleted (antibody)”, the ratio to native IgG1 was 0.08 in assay [10] and 0.54 in assay [11].

For the substance anti-IgE E27 IgG1 Pro329Ala (antibody), the percentage of the wild type in [12] came to 96%.

As for “anti-IgE E27 IgG1 variant Asp270Ala (antibody)”, in assay [13], the ratio of binding of the variant to that of native IgG1 (ratio (variant/native IgG1)) is 0.06.

As for “anti-IgE E27 IgG1 variant S298(317)V (antibody)”, in assay [14], the ratio of binding, variant/native IgG1 (mean) turned out to be 0.11.

“anti-p185HER2 IgG1 variant Ser298Ala/Glu333Ala/Lys334Ala (antibody)” gave an ADCC, NK cells of Phe158/Phe158 donors in assay [15] of more than 100%.
